Literature values in paper PMC8179794.
Like-named read-outs stand apart in the source and are kept apart here. Blank lines part the entries; values can stand above or below the substance they belong to.

What was measured:
IL-2Rβ (Homo sapiens) [1] = target: IL-2Rβ (Homo sapiens) (UniProt P14784)
IL-2Rα (Homo sapiens) = IL-2Rα (Homo sapiens) (UniProt P01589)
IL-9R (Homo sapiens) = IL-9R (Homo sapiens) (UniProt Q01113)
IL-2Rβ (Homo sapiens) [2] = target: IL-2Rβ (Homo sapiens) (UniProt P14784); remark: listed apart in the source
IL-15Rα (Homo sapiens) = IL-15Rα (Homo sapiens) (UniProt Q13261)
IL-21R (Homo sapiens) = IL-21R (Homo sapiens) (UniProt Q9HBE5)
UniProt Q9HBE5, sequence (Q9HBE5 20-232): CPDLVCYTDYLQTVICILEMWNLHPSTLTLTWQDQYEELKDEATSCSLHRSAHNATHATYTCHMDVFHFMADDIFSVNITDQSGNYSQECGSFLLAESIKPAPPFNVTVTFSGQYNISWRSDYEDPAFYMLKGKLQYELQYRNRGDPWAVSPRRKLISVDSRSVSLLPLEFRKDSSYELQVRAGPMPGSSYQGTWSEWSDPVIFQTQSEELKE

UniProt P14784, sequence (P14784 27-240): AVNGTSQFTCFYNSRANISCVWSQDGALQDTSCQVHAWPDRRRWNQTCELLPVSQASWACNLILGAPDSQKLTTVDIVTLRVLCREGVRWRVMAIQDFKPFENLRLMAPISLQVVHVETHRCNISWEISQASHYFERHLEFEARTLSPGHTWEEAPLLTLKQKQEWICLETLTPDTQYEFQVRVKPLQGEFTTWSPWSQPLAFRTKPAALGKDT
UniProt P01589, sequence (P01589 22-240): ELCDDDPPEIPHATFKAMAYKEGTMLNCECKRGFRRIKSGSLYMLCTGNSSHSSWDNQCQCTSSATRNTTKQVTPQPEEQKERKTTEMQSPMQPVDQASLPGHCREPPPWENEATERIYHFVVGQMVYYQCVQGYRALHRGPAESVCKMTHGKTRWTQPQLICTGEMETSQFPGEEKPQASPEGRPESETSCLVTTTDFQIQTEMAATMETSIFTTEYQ
UniProt Q01113, sequence (Q01113 41-270): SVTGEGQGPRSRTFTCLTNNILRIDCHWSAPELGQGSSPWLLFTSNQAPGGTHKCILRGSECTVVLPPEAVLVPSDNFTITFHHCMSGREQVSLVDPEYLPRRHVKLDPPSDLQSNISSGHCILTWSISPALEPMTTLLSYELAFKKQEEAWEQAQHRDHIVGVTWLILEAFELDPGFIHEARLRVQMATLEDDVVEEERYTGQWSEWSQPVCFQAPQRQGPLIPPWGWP
UniProt Q13261, sequence (Q13261 31-205): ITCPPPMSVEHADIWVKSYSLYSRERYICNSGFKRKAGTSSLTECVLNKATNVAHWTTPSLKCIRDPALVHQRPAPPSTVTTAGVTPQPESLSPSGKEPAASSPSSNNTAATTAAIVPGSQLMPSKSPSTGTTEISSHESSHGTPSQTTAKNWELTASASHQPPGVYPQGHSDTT

Kd (IL-2Rβ (Homo sapiens) [1]): 144 nM
Kd (IL-2Rα (Homo sapiens)): 10 nM
Substance: IL-2 (from UniProt P60568)

Kd (IL-9R (Homo sapiens)): 0.1 nM
Substance: IL-9 (from UniProt P15248)

Kd (IL-2Rβ (Homo sapiens) [2]): 438 nM
Kd (IL-15Rα (Homo sapiens)): 0.065 nM
Substance: IL-15 (from UniProt P40933)

Kd (IL-21R (Homo sapiens)): 0.07 nM
Substance: IL-21 (from UniProt Q9HBE4)
